Measurements: a protein production outcome set (Wang et al. 2014)

Assay: label from the status in PepcDB records

Row | Sequence | protein production
1 | MRDRRAPSPCGWRSGRNDLRPARLDLAISAAMRTNSAPQPEGDADQPPSPSTPPAGPPPRRRFGFARRLLAPVLSPVAHYARRYLQASVEHELRQTQGQLHALSAELNAAQARIDHNRELMHLMLQQQQASAVAMQSVLAQLARIEGHSARAEDHGIRIEGLSRKLDGDIAGLPGVFGPRFDELEIKQRPLIAYDDESMAIRMRDGYVLAPRNLPTFVTMLANATSRGLEPGTGDVLRRLVQPGMVVADVGANIGLLTLVMAWATGPGGRVIAFEPEAIPRSNLEKMKHLNGLSWVEVRDQAVGERAGRLTFHVSDIIGHSSLYALPDAEEARTVEVEVVRLDDVAPAKRLDVVKIDVEGAELDVLAGMKGVIAKNPDLAIIAEFGPEHLARVGQTPVQWFKAFGDAGFKAYMINETSGDCEPTSAKAATTVVSANIAFVRAGGDAEMRLLGR | failed
2 | MTFYDREAELDTLSDAVESPGADFVVVYGRRRVGKTELLKEFCANRPHIYFLAAQEAEHRQREKFLDQVADYFDERVPRIDGWDEAFEYLGEQLQREDLVVVIDEFPYLVAENDSLPSYVQGFVDQELDGTDSMIVLCGSSVSTMESEILGHESPLYGRRTAQLDVTPFSFQQAREVISYDIQDAIRSYAVTGGTPMYLTLFDYTQSLAANIQSHVLSPSAVLYNEPEFLLRTELRNPARYMSILEAVALGHTTPNEISGATGIDSGPLSKYLQTLRRLRLIERDVPVMASGKKSKRSRYRVADEFLRFWFRYVEPNRSSIEEAPEIVYDGTIEPDLPTHVATTFEDVCQEAVWEGIRRGTFDPYSEVGRWWYGEEEIDIVGLAPNDDRVLLAECKWTTDPVGEDLVESLRAKAEHVRWGPPDRDEQFALFSKSGFVDGLEAQLDDSWSLFTVADIDDLLTPS | failed
3 | SLEEVVNELTEEIRELYTADQVPWVIGYSGGKDSTAVLQLVWMALKGLPAEQRTKAVHVISTDTLVENPVVAAWVSASLGTMQDAAQAQGLPVEPHRLTPEIKDTFWVNLLGRGYPAPRPKFRWCTERLKIKPSNAFIRSVVAAHGEAIMVLGIRKTESQARARAMEKHEKRRVRDRLSPNANLPNSLVYSPVEDWTNDDVWEFLMQKPNPWGYTNQDLLTMYQGASSDGECPLVVDSTTPSCGSSRFGCWT | failed
4 | MELSAIGEQVFAVESIRKKRVRKGKVEYLVKWKGWPPKYSTWEPEEHILDPRLVMAYEEKEERDRASGYRKRGPKPKRLLLQRLYSMDLRSSHKAKGKEKLCFSLTCPLGSGSPEGVVKAGAPELVDKGPLVPTLPFPLRKPRKAHKYLRLSRKKFPPRGPNLESHSHRRELFLQEPPAPDVLQAAGEWEPAAQPPEEEADADLAEGPPPWTPALPSSEVTVTDITANSITVTFREAQAAEGFFRDRSGKF | failed
5 | MEKKIVYFNKPGRENTEETLRLAVERAKELGIKHLVVASSYGDTAMKALEMAEGLEVVVVTYHTGFVREGENTMPPEVEEELRKRGAKIVRQSHILSGLERSISRKLGGVSRTEAIAEALRSLFGHGLKVCVEITIMAADSGAIPIEEVVAVGGRSRGADTAVVIRPAHMNNFFDAEIKEIICMPRNKR | not failed
6 | MNEFMEPLDRISAETLGHYERNAEAFFEGTRDHDVSQNIAALLSHIRTEPPFTVLDFGCGPGRDLKAFTELGHRAVGLDGAFRFVEMARDYSGCEVWHQDFLKLDLPEEHFDGIFANATLFHVPSRELPRVLGELRAALKPEGVLFASNPRGRNEEGWNRGRYGVYHDLDTWRRFLTSAGFLELEHYYRPAGLPRDQQPWLASVWRRTLEHHHHHH | not failed
7 | MIYFTGDTHFADPRVLRIDRRPFPDMASHDVTLIRNWNEIVDAQDDIWHLGDFMSFRGGDCDQLLSMLNGRKHLIIGNNDPSTTTEATGWASVQHYSEMTLDDHLLILCHYPFRTWNKMGRKSINLHGHSHGRLKPLPRQYDVGVDAQRLRPVSLQTLLSTKPES | failed
8 | MPHPNRTFKIVIAPDSFKSTATTSQAAAFIAEGIQAAVQSNECEGINVEITTVPMADGGEGTSSCFEGIDITLPTTDANGRLTEATYRFDPQSETAYIDVAAASGLPAVEDELRPLTADTYGTGVLIADAQTRGARR | not failed
9 | MNLCGDSEILKEDDNTKNFARKNPDPYPPTGTSLVYLDHLELCLCSTEWWNLLTCILDDAPKLRVLKLKLYRKHCVEYNESMEPWKQPDYVPICLSSYLEIFEWRQYNGEEQEREVAKYILENASRLKKAIFYLESAEKHGILKELECMARGSKKCQLVFD | failed
10 | MIGELVKDKILIKNIEDARLIYKMGYYGKPIGISKPKSAEEINSELILSLIEGVYLVKKGKLEIVSNGERLDFERLYQIGVTQIPRFRILYSVYEDLREKGYVVRSGIKYGADFAVYTIGPGIEHAPYLVIALDENSQISSNEILGFGRVSHSTRKELILGIVNLTNGKIRYIMFKWLKM | not failed
11 | MPKSMGMAVAVPVTLAVIAAGGAGVGAYMYNERNLALEELARQSELSGSIATLETEVAGLTSQVKAAEGQLGDLNGQLEAAKAELAEVQGQHDRLSSELEPMRAEIASFDSRKAEAEESTAKAIADFQAADARLKELTDREDNLRATVSKLAAEVQDLDRRMEGLRAESGALVAAAQSAARQRTDLQGMVETLAGLLATRSEELVQLERRIGEQDLKVPAAGPAPLAAAAGAASQAPDGAGAAEPAAKEAETAAPETDAAGQTASQAEGSEAGSQPAAEPEAAEADGGNGAAEEPEAGAQDEGADAAAEPAPTGASEDAPDDAAAEGSTAEAEAAPEASGSTAGASDDAASQGSTAASEEPEAAPPSEAPAKAEAPDLGAGTYGIGPLFATFSPDGSFTMRNVELDTSASGKWEVTDGLLTLSDPEGGSGSSSFPMLCQLVKEAEALKLAKAQTGSCPLAGMEIARR | failed
12 | MGTKVSDMQKNVTPGRRKGCPNYPPEFKQQLVAASCEPGISISKLALENGINANLLFKWRQQWREGKLLLPSSESPQLLPVTLDAAAEQPESLAEDPETLSISCEVTFRHGTLRFNGNVSEKLLTLLIQELKR | failed
13 | MKINPRVIYLSIVFIFLVIMASNVAVADDLEAEKLTKVASNVALDSNPVWSPDGKEILFSRENGLYKVFSDGTGEMKLTSTKGKNFTSDYAWSPDGSKISYIENRYDTAAGPRSDLWIMNSNGEGKKQLLDTIWYRYYYIYTWFPTGSKILYAEIYEEIGGSYWEMDSDGSNKHNIGNMGIANGIALSPDASKIAICAHGPADVDYYIDVGKVGKDLTSFRYGLITHQTQSRQSQIWAPDGSKIVYYAGKNESYYEDENSEIYIVKADGTGRIQLTSDSANDNSPVFSPDGSKIVFVSDKAGNEDIWIMDADGKNKVQLTSDPASDSFPVWSPDGKKIAFWSNRGGNNNIYTLTLENEKTPVAAFCASQTSGNAPLKVSFTDKSTGTPTSWSWSFGDGKTSTLKNPLHIYSKAGKYTVSLTVKNAAGTNMKTITKYITVKTAPVKPIAAFSASPGSGKTPLKVKFTDTSTGTPTAWRWNFGDGSKSFLQNPIHKYSKTGIYTVDLTVKNAAGRNTVTKTDYITVVTKPVAEFSATPTTGKLPLTVEFTDKSTGVPTGWIWSFGDGTISREQNPKHQYLQEGKYKIILSVTNVAGSSTIKKINYIRVTTNTRPRIL | failed
14 | MLKLNLKKSFQKDFDKLLLNGFDDSVLNEVILTLRKKEPLDPQFQDHALKGKWKPFRECHIKPDVLLVYLVKDDELILLRLGSHSELF | failed
15 | MACIHIESSHPPAWKTHSVQENKPANADDISNTTLPEHHDGGDGGIQETWAAIGDSGGRGGGYFAGESRKKLEKKKSQVLLEGYALDDQDDLTRAKSLTDDDLEELKGCLDLGFGFSYDEIPELCNTLPALELCYSMSQKFLDDKQQNHHKSQEEDDSSPPPTTTAPIANWKISSPAELESIFIFEPEKDRLCKNEVSAIVR | failed
16 | MVLMRYVGKRDLFTVGKYLGTIMQGVGFVVALPVFVAIIYGEGNLQSFIIPAFISLGAGTVLKRYLPEECSVRLKHGMMVACLAWLWAGLIGSLIMISALNIDFTNAFFENMSAWTGSGLTIFSSVESLPKSILFLRSLEQWIGGLGVVIVVIGILIRPGTAASRLYKSEARDERIKPSIANTVKTIWWIYITYTVLGIVLYGLTGMPLFDAINNTLTNLSTGGMSIKNMNIGYYHSAAVYLVTMLLMILGGTSFLVHYQLIKGRFFSVLHDIQLQATVVFISIFTILAVYVGGVAPLESIYHVISALSCTGSSISSTPQMVAWPAYFKVLLITCMLIGMAAGSTTGAVKIIRVITVLKGVYWEIMRILAPEGSVMPRKISGKSVSDTEIREAGSYISLYFVLLFFTWSVLVVYGYDPLNSLFEAASAQGNVGLSMGITSFNLPVVPKMALILSMWLGRLEIIPVIVLIRGLVEAFKAG | failed
17 | MSLTRDAASITPARVRAHVFRYPVSTPVKTSFGTMHDRPAVLVEVEDSDGAVGWGEVWCNFPACGAEHRARLVETVLAPLLTARAFADPAQAFAHLEARTAVLAIQTGEPGPLAQAIAGLDIALCDLAARRAGQPLWAWLGGSGDRIGVYASGINPENPEDVVARKAAEGYRAFKLKVGFDDARDVRNALHVRELLGAATPLMADANQGWDLPRARQMAQRLGPAQLDWLEEPLRADRPAAEWAELAQAAPMPLAGGENIAGVAAFETALAARSLRVMQPDLAKWGGFSGCLPVARAVVAAGLRYCPHYLGAGIGLQASAHLLAAVPGLASPGLLEVDANDNPLRSLLSPALATLHEGRITLGGAPGLGVTPDLAALRAACAAREGHHHHHH | not failed
18 | SATERADSADFRTIIRNKIPLMDVRAPVEFGKGAFDLSINYPLMNNDERADVGICYKQNGQEAAIKLGNALVSGQSKARRLTQWQTFARENPQGYLYCFRGGLRSQTVQRWLKESGINYPLITGGYKALRQFLLNELEQLALH | failed
19 | MGYEGIIVVDVRDAEAYKECHIPTAISIPGNKINEDTTKRLSKEKVIITYCWGPACNGATKAAAKFAQLGFRVKELIGGIEYWRKENGEVEGTLGAKADLFWNMKKESLEHHHHHH | failed
20 | MPANPRQDLDRYRAKRDFARTPEPQGRSEAPRPEAESLSFVVQKHAASRLHWDFRLEWNGVLLSWAVTRGPSPDPSARRLAVRTEDHPLDYAEFEGTIPKGEYGGGTVMLWDRGTWEPQGDFAEGLRTGQLKIRLAGERMRGRWTLVRMKPRPREKAENWLLIKEHDTHESEQTEELVERHMTSVATGRTMEQIAAGKAPPRRTRQAALPAFRPLQLARLVSAAPEGEDWIHETKFDGYRCLAALAGGRARLYTRSGLDWTAKFGALVEDVEALEAQEALIDGEVIAPGREGGSFSELQARLKSGGQLLFMTFDLLLLDGEDLTGQPLLARKERLKTLIGKGRGAVRFSGHIRGHGPEVHERICAAGLEGIVSKRASAPYAGSRNGDWLKVKCAHRQEFVICGWNASDKPGRPFASLVMGSYEKSRLVYRGSVGSGFGAPLFRELKPLLAERAQSACPFDRTPAEAKGAHWLKPELVAEVSFTELTAEGHIRHGVFAGLRSDKDAREVRLEEPAPETPAPRKSGVRKKGTKTARPDAPSPDEPAPEPARKPRTARGEKKETTMARPDDLRVAGIRISHPDRRIYDRPAVTKREVAEHAEALAPRMLRFLKDRPVSLLRCPEGAAAECFFQKHRTRGMPVAMKTVPVETKSGPEDFITLPDVAALVGATQMGTLEFHIWGSRNRSLQRPDRLVFDLDPDEGLDFAHVRTAAAELRGLLTDLGLPSVPMLSGGKGVHVIVPLKPKAEWESVKLFSRALATHLAQEAPDRYTATMAKAGRKGRIFIDWLRNDRGSTAIAPYSLRARPGAPVATPVDWDELASARSGGDWTIRSIRDRLDRPCPLAEASARPATLGRTVIGRLERLVAGGKP | failed
21 | MKAVKSERERGSRRRHRDGDVVLPAGVVVKQERLSPEVAPPAHRRPDHSGGSPSPPTSEPARSGHRGNRARGVSRSPPKKKNKASGRRSKSPRSKRNRSPHHSTVKVKQEREDHPRRGREDRQHREPSEQEHRRARNSDRDRHRGHSHQRRTSNERPGSGQGQGRDRDTQNLQAQEEEREFYNARRREHRQRNDVGGGGSESQELVPRPGGNNKEKEVPAKEKPSFELSGALLEDTNTFRGVVIKYSEPPEARIPKKRWRLYPFKNDEVLPVMYIHRQSAYLLGRHRRIADIPIDHPSCSKQHAVFQYRLVEYTRADGTVGRRVKPYIIDLGSGNGTFLNNKRIEPQRYYELKEKDVLKFGFSSREYVLLHESSDTSEIDRKDDEDEEEEEEVSDS | failed
